{"source": "patent US20050249750A1", "key": {"[1]": {"biological_target": "soluble DR 11 (DRB1*1101) class II molecules purified from SWEIG EBV-B cells (human) (UniProt P01903)", "experiment": "peptide competition ELISA, soluble DR 11, biotinylated indicator TT831-843"}, "[2]": {"biological_target": "soluble DR 1 (DRB1*0101) class II molecules purified from HOM-2 EBV-B cells (human) (UniProt P01903)", "experiment": "peptide competition ELISA, soluble DR 1, biotinylated indicator GFK(A)7"}, "[3]": {"biological_target": "soluble DR4 (DRB1*0401) class II molecules purified from BSM or PREISS EBV-B cells (human) (UniProt P01903)", "experiment": "peptide competition ELISA, soluble DR 4, biotinylated indicator UD4"}, "[4]": {"biological_target": "soluble DR 8 (DRB1*0801) class II molecules purified from BM9 EBV-B cells (human) (UniProt P01903)", "experiment": "peptide competition ELISA, soluble DR 8, biotinylated indicator GYR(A)6L"}, "[5]": {"biological_target": "soluble DR 2a (DRB5*0101) molecules isolated from L cells transfectant L416.3 (human) (UniProt P01903)"}, "[6]": {"biological_target": "soluble DR 7 (DRB1*0701) class II molecules purified from EKR EBV-B cells (human) (UniProt P01903)", "experiment": "peptide competition ELISA, soluble DR 7, biotinylated indicator GFK(A)7, pH 5"}}}
{"substance": "HA307-319 peptide derived from influenza hemagglutinin", "values": [{"measurement": "IC50", "setting": "[1]", "value": 1000, "unit": "nM"}, {"measurement": "IC50", "setting": "[2]", "value": 100, "unit": "nM"}, {"measurement": "IC50", "setting": "[3]", "value": 1000, "unit": "nM"}, {"measurement": "IC50", "setting": "[4]", "value": 5000, "unit": "nM"}, {"measurement": "IC50", "setting": "[5]", "value": 30, "unit": "nM"}, {"measurement": "IC50", "setting": "[6]", "value": 100, "unit": "nM"}]}
